The target of test [1] is T1, human CD8A-Fc (recombinant human CD8 alpha fused to Fc fragment of human IgG1) (human, UniProt P01732 22-182, limits assumed).
T1 construct: SPR ligand, captured by goat anti-human Fc; also called hCD8A-Fc; recombinant CD8 alpha; not shown: linker with flag (and polyhistidine) tag and Fc fragment of human IgG1; depends on which of the two constructs was used
In words: SPR, dissociation rate on recombinant CD8 alpha. In general terms: Surface plasmon resonance follows binding to a sensor surface in real time, without labels.

The target in test [2] is T1, human CD8A-Fc (recombinant human CD8 …). As to the kind of experiment: SPR (ProteOn), captured hCD8A-Fc, heterogeneous ligand fit, lower affinity population. The protocol: (§1) Human CD8A-Fc was then captured at five surface densities ranging from 200 to 1200 response units, leaving the 6th channel as empty channel control for GAH-Fc IgG surface. Binding was measured by flowing five different concentrations of anti-CD8A FN3 domains (1 μM diluted in a 3-fold dilution series) as analytes simultaneously in the horizontal orientation over the captured hCD8A-Fc surfaces, with a sixth analyte channel containing only running buffer PBST. All interactions were measured at 100 uL/min flow rate with association and dissociation times being 4, 30 minutes respectively. […] Data analyses were performed using Bio-Rad ProteOn Manager software (version 3.1.0.6). Raw data were double referenced by subtraction of the interspot (empty chip surface, no protein immobilized or captured) signals to correct the non-specific binding of the FN3 domain to the pre-coated GAH-Fc IgG surface, followed by a double referencing using the buffer blank response (to correct for any baseline drift resulting from ligand dissociation over time). […] Given that the GAH-Fc capture of hCD8A-Fc format is the least disruptive relative to other formats in introducing potential experimental artifacts (such as ligand activity loss and/or artificial eptiopes/heterogeneous ligand population due to amine coupling), it is considered that the results from the GAH-Fc capture experiments reported here represent the most reliable ProteOn SPR data, despite the non-conforming 1:1 Langmuir fits observed in many instances. A heterogeneous ligand model was chosen to fit the data assuming two different ligand species, either due to the heterogeneity in the ligand protein population or due to potential different mechanisms for each FN3 domain binding to the 2 hCD8A monomers in the Fc fusion protein.

Test [3] shares this target. In words: SPR (ProteOn), captured hCD8A-Fc, heterogeneous ligand fit, higher affinity population. The protocol: as §1
Test [4] has the same target. In words: SPR on recombinant human CD8 alpha after DFO conjugation, lower affinity population. On the procedure:
(§2) Data analyses were performed using Bio-Rad ProteOn Manager software (version 3.1.0.6). Raw data were double referenced by subtraction of the interspot (empty chip surface, no protein immobilized or captured) signals to correct the non-specific binding of the FN3 domain to the pre-coated GAH-Fc IgG surface, followed by a double referencing using the buffer blank response (to correct for any baseline drift resulting from ligand dissociation over time). […] Given that the GAH-Fc capture of hCD8A-Fc format is the least disruptive relative to other formats in introducing potential experimental artifacts (such as ligand activity loss and/or artificial eptiopes/heterogeneous ligand population due to amine coupling), it is considered that the results from the GAH-Fc capture experiments reported here represent the most reliable ProteOn SPR data, despite the non-conforming 1:1 Langmuir fits observed in many instances. A heterogeneous ligand model was chosen to fit the data assuming two different ligand species, either due to the heterogeneity in the ligand protein population or due to potential different mechanisms for each FN3 domain binding to the 2 hCD8A monomers in the Fc fusion protein. In this case, because each anti-CD8A FN3 domain would have separate affinities, the resultant sensorgram reflects the sum of two independent reactions with two sets of rate constants, which were reported for each FN3 domain binding.
(§3) Following conjugation to DFO, the binding of each anti-CD8A FN3 domain to recombinant human CD8 alpha was assessed by surface plasmon resonance as previously described. All samples retained tight binding to human CD8A following mutation of E54 to Cys and conjugation to DFO (Table 8).

Test [5] has the same target. In words: SPR on recombinant human CD8 alpha after DFO conjugation, higher affinity population. The protocol:
as §2, §3

Consider 13 molecules from patent US20210032312A1 (Janssen / Centocor, published 2021).

T1 sequence (P01732 22-182 limits assumed): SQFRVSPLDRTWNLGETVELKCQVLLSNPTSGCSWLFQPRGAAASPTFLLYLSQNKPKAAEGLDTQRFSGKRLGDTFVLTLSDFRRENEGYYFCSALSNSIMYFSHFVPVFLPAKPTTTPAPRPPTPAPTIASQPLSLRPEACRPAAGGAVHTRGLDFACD

B1: P282DR9P1359_G7 (designed binder)
chain: LPAPKNLVVSRVTEDSARLSWTAPDAAFDSFAITYIEKEHIEDGEAIVLTVPGSERSYDLTGLKPGTEYWVPIWGVKGGANSWPLSAIFTT
notes: FN3 domain (Centyrin); purified as His-tagged protein, tag not in the entry
In the case of B1, the dissociation rate constant (koff) in test [1] amounted to 1.06e-05 s⁻¹. In addition, in test [2], the Kd came to 2.1 nM, the off-rate constant (koff) is 5.51e-05 s⁻¹ and the kon came out at 68400 M⁻¹ s⁻¹. Moreover, in test [3], the Kd stood at 0.05 nM, the koff came out at 1.49e-05 s⁻¹ and the on-rate constant (kon) turned out to be 276000 M⁻¹ s⁻¹.

B2: CD8S370-DFO (designed binder)
chain: LPAPKNLVVSRVTEDSARLSWTAPDAAFDSFAITYIEKEHIEDGEAIVLTVPGSCRSYDLTGLKPGTEYWVPIWGVKGGANSWPLSAIFTT
modifications: deferoxamine (DFO) conjugated to the free cysteine introduced by E54C
notes: DFO conjugate of CD8S370
On to B2, for which, in test [4], the Kd is 13 nM, the koff was 7.65e-05 s⁻¹ and the kon turned out to be 5910 M⁻¹ s⁻¹. In test [5], the equilibrium dissociation constant (Kd) is ≤ 0.3 nM, the koff was ≤ 2e-05 s⁻¹ and the kon was determined as 46400 M⁻¹ s⁻¹.

B3: P282ER9P1360_C8 (designed binder)
chain: LPAPKNLVVSRVTEDSARLSWTAPDAAFDSFGILYYEPVDSGEAITLPVPGSERSYDLTGLKPGTEYWVVITGVKGGAPSTPLGTIFTT
notes: as for B1
Turning to B3, the koff in test [1] was 0.000179 s⁻¹; in test [2] it was 9.52e-05 s⁻¹; in test [3], 4.71e-05 s⁻¹. For the same molecule, the dissociation constant (Kd) is 4.1 nM in test [2] and 0.2 nM in test [3]. In addition, the kon came out at 30900 M⁻¹ s⁻¹ in test [2] and 218000 M⁻¹ s⁻¹ in test [3].

B4: CD8S405 (designed binder)
chain: LPAPKNLVVSRVTEDSARLSWTAPDAAFDSFGILYYEPVDSGEAITLTVPGSERSYDLTGLKPGTEYWVVITGVKGGAPSTPLGTIFTT
notes: P48T mutant of P282ER9P1360_C8; the entry holds the mutation
For B4, the off-rate constant (koff) in test [1] stood at 0.00114 s⁻¹.

B5: CD8S365-DFO (designed binder)
chain: LPAPKNLVVSRVTEDSARLSWTAPDAAFDSFGILYYEPVDSGEAITLPVPGSCRSYDLTGLKPGTEYWVVITGVKGGAPSTPLGTIFTT
modifications: deferoxamine (DFO) conjugated to the free cysteine introduced by E54C
notes: DFO conjugate of CD8S365
On to B5, for which, in test [4], the dissociation constant Kd turned out to be 9.73 nM, the off-rate constant (koff) came to 4.29e-05 s⁻¹ and the kon was determined as 4410 M⁻¹ s⁻¹. Besides, in test [5], the dissociation constant (Kd) stood at 0.6 nM, the koff came to 4.18e-05 s⁻¹ and the kon came to 68000 M⁻¹ s⁻¹.

B6: CD8S391 (designed binder)
chain: LPAPKNLVVSRVTEDSARLSWTAPDAAFDSFGILYYEPVDSGEAITLPVPGSERSYDLTGLKPGTEYHVVITGVKGGAPSTPLGTIFTT
notes: W68H mutant of P282ER9P1360_C8; the entry holds the mutation
Take B6: the koff in test [1] was determined as 0.00032 s⁻¹.

B7: CD8S367-DFO (designed binder)
chain: LPAPKNLVVSRVTEDSARLSWTAPDAAFDSFAIAYPEWPPQGEAIVLTVPGSCRSYDLTGLKPGTEYFVVIYGVKGGSYSAPLSAIFTT
modifications: deferoxamine (DFO) conjugated to the free cysteine introduced by E54C
notes: DFO conjugate of CD8S367
B7: in test [4], the Kd was 89.1 nM, the koff came out at 0.000975 s⁻¹ and the kon amounted to 10900 M⁻¹ s⁻¹. Further, in test [5], the Kd was found to be 1.55 nM, the koff came to 0.000131 s⁻¹ and the kon came to 84500 M⁻¹ s⁻¹.

B8: CD8S368-DFO (designed binder)
chain: LPAPKNLVVSRVTEDSARLSWTAPDAAFDSFQIAYPEWPPPGEAIVLTVPGSCRSYDLTGLKPGTEYFVIIQGVKGGVESWPLSAIFTT
modifications: deferoxamine (DFO) conjugated to the free cysteine introduced by E54C
notes: DFO conjugate of CD8S368
Take B8: in test [4], the Kd amounted to 13.6 nM, the dissociation rate constant (koff) came out at 9.98e-05 s⁻¹ and the kon is 7320 M⁻¹ s⁻¹. Further, in test [5], the Kd turned out to be 0.23 nM, the off-rate constant (koff) was 2.53e-05 s⁻¹ and the kon is 108000 M⁻¹ s⁻¹.

B9: P282DR9P1359_F7 (designed binder)
chain: LPAPKNLVVSRVTEDSARLSWTAPDAAFDSFAIAYPEWPPQGEAIVLTVPGSERSYDLTGLKPGTEYFVVIYGVKGGSYSAPLSAIFTT
notes: as for B1
For B9, the off-rate constant (koff) in test [1] turned out to be 0.000339 s⁻¹. Also, in test [2], the Kd came to 12 nM, the dissociation rate constant (koff) is 0.000365 s⁻¹ and the kon was found to be 40300 M⁻¹ s⁻¹. In addition, in test [3], the Kd came to 0.5 nM, the koff was 7.99e-05 s⁻¹ and the kon stood at 404000 M⁻¹ s⁻¹.

B10: P283AR9P1362_D6 (designed binder)
chain: LPAPKNLVVSRVTEDSARLSWAKRPGAFDSFLIQYQESEKVGEAIVLTVPGSERSYDLTGLKPGTEYTVSIYGVDVKYDIDSRPISSNPLSAIFTT
notes: as for B1
Consider B10, for which, in test [2], the equilibrium dissociation constant (Kd) is 0.98 nM, the dissociation rate constant (koff) amounted to 3.12e-05 s⁻¹ and the association rate constant (kon) is 56200 M⁻¹ s⁻¹. In addition, in test [3], the Kd is 0.03 nM, the off-rate constant (koff) amounted to 1e-06 s⁻¹ and the on-rate (kon) came out at 155000 M⁻¹ s⁻¹.

B11: CD8S369-DFO (designed binder)
chain: LPAPKNLVVSRVTEDSARLSWAKRPGAFDSFLIQYQESEKVGEAIVLTVPGSCRSYDLTGLKPGTEYTVSIYGVDVKYDIDSRPISSNPLSAIFTT
modifications: deferoxamine (DFO) conjugated to the free cysteine introduced by E54C
notes: DFO conjugate of CD8S369
Turning to B11, in test [4], the Kd is ≤ 3.4 nM, the koff was ≤ 1e-05 s⁻¹ and the kon came to 2870 M⁻¹ s⁻¹. Besides, in test [5], the dissociation constant Kd was ≤ 0.3 nM, the koff was ≤ 1e-05 s⁻¹ and the on-rate constant (kon) is 37300 M⁻¹ s⁻¹.

B12: P282DR9P1359_C5 (designed binder)
chain: LPAPKNLVVSRVTEDSARLSWTAPDAAFDSFWITYPEWPDPGGEAIVLTVPGSERSYDLTGLKPGTEYFVVIYGVKGGEIYSPLSAIFTT
notes: as for B1
For B12, the koff in test [1] was 0.000147 s⁻¹. In test [2], the Kd stood at 6.5 nM, the dissociation rate constant (koff) turned out to be 0.000127 s⁻¹ and the on-rate constant (kon) was found to be 19200 M⁻¹ s⁻¹. In test [3], the dissociation constant (Kd) worked out at 0.02 nM, the koff worked out at 5.79e-06 s⁻¹ and the on-rate (kon) is 300000 M⁻¹ s⁻¹.

B13: CD8S366-DFO (designed binder)
chain: LPAPKNLVVSRVTEDSARLSWTAPDAAFDSFWITYPEWPDPGGEAIVLTVPGSCRSYDLTGLKPGTEYFVVIYGVKGGEIYSPLSAIFTT
modifications: deferoxamine (DFO) conjugated to the free cysteine introduced by E54C
notes: DFO conjugate of CD8S366
With B13, in test [4], the dissociation constant Kd worked out at 18.2 nM, the koff stood at 0.000106 s⁻¹ and the on-rate (kon) worked out at 5850 M⁻¹ s⁻¹. Also, in test [5], the Kd stood at 0.9 nM, the koff was 7.01e-05 s⁻¹ and the association rate constant (kon) is 79500 M⁻¹ s⁻¹.

The term koff denotes the first-order rate constant of dissociation. Usually Kd stands for a measure of binding affinity in units of concentration. By kon is commonly meant a measure of how fast the partners come together.
